Laboratory results as given in US20210369776A1 (published 2021).

B1: L203 TCR (TCR, V domains shown)
Valpha: DQQVKQNSPSLSVQEGRISILNCDYTNSMFDYFLWYKKYPAEGPTFLISISSIKDKNEDGRFTVFLNKSAKHLSLHIVPSQPGDSAVYFCAAKLPQAAGNKLTFGGGTRVLVKP
Vbeta: MVIQNPRYQVTQFGKPVTLSCSQTLNHNVMYWYQQKSSQAPKLLFHYYDKDFNNEADTPDNFQSRRPNTSFCFLDIRSPGLGDAAMYLCATSSSIAGDTRNNEQFFGPGTRLTVL
B2: L201 TCR (TCR, V domains shown)
Valpha: DQQVKQNSPSLSVQEGRISILNCDYTNSMFDYFLWYKKYPAEGPTFLISISSIKDKNEDGRFTVFLNKSAKHLSLHIVPSQPGDSAVYFCAAPPPSGNQFYFGTGTSLTVIP
Vbeta: DVKVTQSSRYLVKRTGEKVFLECVQDMDHENMFWYRQDPGLGLRLIYFSYDVKMKEKGDIPEGYSVSREKKERFSLILESASTNQTSMYLCASSTRLAGAQRDTQYFGPGTRLTVL
B3: L202 TCR (TCR, V domains shown)
Valpha: EDVEQSLFLSVREGDSSVINCTYTDSSSTYLYWYKQEPGAGLQLLTYIFSNMDMKQDQRLTVLLNKKDKHLSLRIADTQTGDSAIYFCAESIPSGYNKLIFGAGTRLAVHP
Vbeta: GVAQSPRYKIIEKRQSVAFWCNPISGHATLYWYQQILGQGPKLLIQFQNNGVVDDSQLPKDRFSAERLKGVDSTLKIQPAKLEDSAVYLCASSLGLAGEDTQYFGPGTRLTVL

Columns and labels:
[1] = molecular target: T1, EBV LMP2 (latent membrane protein 2) peptide on HLA-A*02:01 (human); test: cytokine release
T1 peptide: LLWTLVVLL

[2] = molecular target: T1, EBV LMP2 (latent membrane protein 2) …; test: killing

| Binder | binding result [1] | binding result [2] |
| --- | --- | --- |
| B1 | recognises |  |
| B2 |  | recognises |
| B3 |  | recognises |
